Source: the supplement of paper PMC12636428

System: Saccharomyces cerevisiae
Assay: transcriptional activation domain activity (GFP:mCherry ratio, weighted mean of sorted bins, harmonized to initial dataset scale) (arbitrary fluorescence ratio units); higher = stronger transcriptional activation
Conditions: beta-estradiol 1 µM; induction time 4 h
In short: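 Yeast diploids with a GFP reporter received barcoded protein tiles, fused to an estradiol-inducible synthetic transcription factor, at the URA3 locus. Cultures were diluted 1:5 into SC holding 1 uM beta-estradiol, incubated 4 hours at 30 °C, sorted into 8 bins on GFP:mCherry ratio, and sequenced for barcodes, with tiles under 50 reads discarded. Activation activity values come from the read-weighted mean of bin median fluorescence, averaged across barcodes and linearly placed on the initial dataset scale.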

Row | Sequence | transcriptional activation domain activity
1 | TVQLLKLFCAFSSLSSILIALLLQTPYYLATTWGTLLRRYIIFFSFPLINSIS | 54200
2 | TVSDEAIEVCVAAQAREGEANKSVREVIAEALNVPKSDVEIAKGMKSREKTVA | 25700
3 | TVWLILNDQTLGYALGSFLCENSLLLSQRINEFFDTVLVAWMQWVLRWLDSWP | 40400
4 | TWHHSIYVPYSFVAAYDHPVCYLIHRFLPLYLTAITFRFHIMTYLLLVGLFSL | 45200
5 | TWILNIPWPQTHMVAVLSLAGFLYFLILDIYEYMCYSYLVLLGTMWFVDIMFF | 73600
6 | TWKVIGLVWRCPELTEYLNKVILTIIIIRSESHFDSSIAALNESCLTPYGTVD | 28800
7 | TWLLFRQVVDVILINDFLAYCMFAFSCFRVPTDLSIPVHVMRWLVGITLIWFN | 74100
8 | TWPINYRIRYILPLLVIAGYTKETLRLIQCIHQTRSSFFTPHFFRRMLRVLLR | 52500
9 | TWPYSSLSELEDLMDRFKRMLTLLRMHLKHVAELEVMVTLWKYMGVLLEFLGS | 61800
10 | TYAIWNCNKWILCILVVVASGVYISSAVILHDIFQSYEYPVLSLPTKMYCLPF | 18700
11 | TYINYLITSNAGLTATIVHMLLWNYAEVSLGWSWITIANMKKLLRPETYKFWQ | 33300
12 | TYIPCDPLLTIVGGNVPFSSLGLRAFSLAMYSLLVIPGLNLVLPFLFFLLLHL | 92200
13 | TYPVSMPFDGTLNLDLDMCFLDVTNTDINFSDIFDPNFQFGSYGFPLSLDYDI | 139000
14 | TYSDVDGEILWPPPVMNVMMIERCGAVCCRVSVGWVLLRRWAQVKRKWETIVL | 41700
15 | TYTPPVEKPDVEEQSRTRLIGLAALNGASSSEGAFSSSTEFPRQVRVIVPALL | 39800
16 | VAAAAAETERAAEAERVAEAGRREEAEGTTDTGKTETGRREEADGTAGAAKAA | 24800
17 | VAACLVNWDMKAAFVCVQSGNLKGVQALSALLGYVQIYYVQWLCAIVIAILYI | 60000
18 | VAAFAVFCSIEARGSLYVFSVDAVKRVGRRIKHFWHGVWTVLRTAVLLCTCGR | 77400
19 | VAALLATSLCMIYPLWSIFSIVQVIYMFANICLLVWVIPKGLHFACYYLLGVS | 37400
20 | VAAVSRGEKERHRDRDREKKPSRSKPEKSSRRVVEKEEKTSSKGSASDKADKT | 39700
21 | VACAVLIAVSIFATIYVVLTSLPVIFQQCPFQTPLSSIIWYLGHLLVIASLSL | 28400
22 | VACEEEMRKLDEEDGRAGLGKGGEGEADREFKRHLRRMRASEVRIVRNVGDLL | 29000
23 | VADVMLQRSTLVIGYCLVITIICCSVFLLYSMDFLSSCISFIWIGMVTLMICL | 41500
24 | VAECLKAMVKWPITMSPTCFHKRLIPCIFFWSQNLLGILLLLHLTEQVPILVR | 72600
25 | VAEDAVVAEDAVAAVVDVDVNHVAAAAVVDVEDVEGAEDVEGVVDAAAHRVAA | 16900

Row | Sequence | transcriptional activation domain activity
26 | VAEDLFERVRLDWLILFDLRMWKKVRCDLRSLYISTVVTIPEFKRVLGLRFAG | 37300
27 | VAGVKSDWDASSDEEEKPVPVAERVNGASSQKSAASKSPSKVTPMPSKTAHLV | 21300
28 | VAIFTDVKNDHLMPNFNLHDQYCNSTNHDSHNHNNTVPDSFSQLMSHLSEIDC | 27700
29 | VAKCFEKVKALIGTFDLDVGRVLDVTLDVFASLLVKHHKFFIKLLRCSYWWPV | 83300
30 | VALACLLTVLPFLVVLGTFILSLTIYTFFLDRSIMVAFFHPFLHPFFFFSFFV | 25400
31 | VALATWVIVIAVLLPTIFLIGFIESYCWFRRMMLGRSALRLGTICWCVMSLWF | 65100
32 | VALDHLYLDEEQTHAIKSLSSLYIKVVIIFIKYLLVHRKIKQRLVRSWAYCYD | 57900
33 | VALPCSFRGLLRFACVTWLKHLFGLISRVLDFQAWWGVQLHCLFLLGLMLLPP | 63500
34 | VALTFYFLFLLFLILLRLGLISCFVFFNFWYIYHFFYLSINLSIFFISFHSFI | 78300
35 | VANHQIYADWLYVWCLTYFMGMHKDVLIVLKRSLKWVPVLGWGMQIFRFIFLA | 70100
36 | VANILCLSTSLLACSMVFWSIPSWYYLVSHYQEWMPHVILPLYLLWWLFMMLV | 39200
37 | VAPLLLAGACCIAHHFMLVFLEGCTVQSEFWIRNANSAFSLLISALLASCVGT | 77100
38 | VARKLLNTIHPALGPLHACSVLRKIRVLICMAGEHATSTYPLEMLLHSLRVFV | 44700
39 | VARVVNVFLWSMAVTFFLLVMHRITVYRAQQLYITTYCDPYFPIYPLRRILPQ | 45400
40 | VASVLVFICHYTECNWGDLTHFYGVNKEHPGSFIQMPYIRLIYSGRPMVHIFF | 29900
41 | VATADVCMVTHFLILLLLAAITGAVLVSVFAFLCVICPPHLRRRPVFMLNLLA | 35400
42 | VAVAREPFQEGADASGKLYNKDSLDDEDSRKYVVILNAFLQMLAALDELVLVL | 76700
43 | VAVARTKARKAVVGIEKVEIAAEVEATPEIVTAARTRERKAVVGIESAETVAE | 45800
44 | VAVTFHTEPHRLVSIIPALISIWDYILGLSPAELSSCTGIHWCIYILTIIFGF | 55400
45 | VCEEAVGCVRRAALEGFVDEDVRAANVLVRRAGERKERAGRAGRSRVVLVDLA | 32600
46 | VCFMGVLIGLLPGTWLCYGSDVCVKGLSSSIISMQLGLLGSLLLILKLVIGVA | 61700
47 | VCGAHCGYILGHINIFQPINWVLVQSSKVFPIDYVLFLLLVLFFFSASVVGLA | 21400
48 | VCKHLKRQRISVDGSLKLISDMNHYFTYIETLKNNELLLYFKALRELSQIYLV | 70700
49 | VCKLLRLETLRWIFREFHWKLHLRKRFLPYHLLTYMRTLRITANNSIKHLSFN | 41000
50 | VCLNLLGGVVVCYCPGLLVIAAIEAPIRFKHIFTCSIHIHSLYLRLLFCALHA | 69200

Row | Sequence | transcriptional activation domain activity
51 | VCLSLYIITCVFGWLLYFITATLSYYYVFDHDYMKHPKFLKNQIRLEINCAAS | 76600
52 | VCQPLSPPVTGVLLVSFLPLFSRAFLAFLLSTLWLFSPLSDHILYYFCFYLAL | 35200
53 | VCVANIFVVFSLYSYTWIQAVVISLSILVYYAFIAIYAQFNTFLFAGQIRLFG | 70400
54 | VCVCVWELVLVLVVWCCHCFSFVHSLHFLPWLLFSSPLVFLFPFPFFFFCLFL | 68600
55 | VCVLHLIVIALSLTDLILPSLIWGLTAIFLGVYAIVQKLSIALIVQPQLFGTL | 65700
56 | VCVRVDWPWLSFPTALVLLTVVLFVTVLVIARRSQVSEGQPIWKSSSIVAFFH | 41100
57 | VDADTASSVSGMTGGRSARWREDVMELCLACVAVGCVKDVGAVNNYHQTGELR | 42700
58 | VDAKFVIVANYGTACVVMGFLAVAMYCLLITVGDDIYFVGMLFSFTIIGTLMI | 29300
59 | VDASTIARLSSPELGAREQLRQEEERRRKIERRARRRERRERERSSALLHLTG | 33400
60 | VDDSDDDGDEEGGKNEESITKKGVRLLDYACGTGLVSRVSHIPSIAGASSRSL | 46600
61 | VDFVKHLISCFSVVGEDNFACTLKGFGWMYLTHVYFFFNVFVALNLQLIILLS | 60000
62 | VDILLKRISTFSYTDSLTMSVAGQLRILYRFINVFYTARDLIGFLALVEKALD | 22700
63 | VDLSDLGEAVINQSNHNNDNDNSNNGDGNNNNTISELVCFDESIADLYPVEID | 71500
64 | VDLTQLSHLMLKIWLELILIVVYKHNILERTYENMVISCMKQVIDLLARDISE | 51900
65 | VDNLLLPLAIHHRFLSYCLYIIGFVYFVYSLEKGHYKFQFTQFCITHMTLFLV | 50900
66 | VDNQFLSTRSIVTEACRKRGIYLTWIDSDPDILNYLQLSTFQFIVLLMLPLTP | 42900
67 | VDRFKEFSHFLRRNENRTPSMIVLRRLCLDVSFLLCVVGFVRILWKRSGMRRR | 62400
68 | VDRSHLELIFGLPIWRLSGILVQTVWYVFQTGFSTLLSLCLFLVSAKRWIVWR | 52400
69 | VDTCRLSAPLVWWLTFGILCTMYLLVLEVILFGILVFMVLPFIMLLYSIMLLC | 49100
70 | VEAAEPEIEVPNKDSRPSKRGRKEKVIEEEDSAPVDKPVSKGKKAAPVAKTAL | 15300
71 | VEAGDGDGAPPKSAKRPRKKKEPVEEGDGDAAAPKPAKRPRKKKVDVTEAQKE | 48100
72 | VEANTSANLHFDNVIPTVTNADIRKKRSNWDNMMTSGPVEDFWTINDDYGFLT | 141000
73 | VEAPAEEQAEAPKTKRGRKAAEPAPVEPKEAEAPEPAAKPKRGRKAVSEEPME | 42100
74 | VEEQKPVAEEAPVRTKVEESKVQEAPVVEAKAEVAVTAAAAVAATAAVATAAV | 23500
